Consider three molecules from article PMC10397321, “Energetic robustness to large scale structural fluctuations in a photosynthetic supercomplex” (Nature Communications, 2023).

By stoichiometry N is commonly meant the number of molecules, sites or subunits per partner or assembly.

To fix the notation:
B1: iron-stressed induced protein A (IsiA) (natural protein)
chain: not shown
notes: IsiA, iron-stressed induced protein A, Synechocystis sp; PCC 6803; six trans-membrane helices; model rebuilt from subunit X of PDB 6NWA; Each IsiA protomer coordinates 17 chlorophylls and 4 carotenoids; 18 copies form the ring around the PSI trimer; also called IsiA protomer; IsiA monomer; source: endogenous, purified as PSI-IsiA supercomplex from Synechocystis sp; PCC 6803 grown with low iron …

Data set [1] deals with the molecule itself. Put plainly: cryo-EM structure; native PSI3-IsiA18 supercomplex co-purified from Synechocystis sp. PCC 6803 membranes in DDM; 30 mM Tricine-NaOH pH 8, 75 mM NaCl, 0.02% DDM; 1.5 mg chlorophyll/ml; vitrified on holey carbon grids; C3 symmetry expansion and multibody refinement.
Data set [2] concerns the target B1. The data set is described as above. The conditions noted are these: both partners purified.

Turning to B1, in data set [1], the “stoichiometry N” value was found to be 18.

B2: PsaJ subunit of photosystem I (natural protein, Synechocystis sp. PCC 6803, UniProt Q55329 1-40, looked up)
chain: MDGLKSFLSTAPVMIMALLTFTAGILIEFNRFYPDLLFHP
notes: PsaJ, PSI subunit, Synechocystis sp; PCC 6803; Stood in the assay as a subunit of PSI; also called PsaF/J; PsaJ/F; source: endogenous, purified as part of the PSI-IsiA supercomplex from Synechocystis sp; PCC 6803 (DDM-solubilised membranes, DEAE column, sucrose gradients)
As for B2, in data set [2], the binding result is reported as “binds”.

B3: PsaF subunit of photosystem I (natural protein, Synechocystis sp. PCC 6803, UniProt P29256 24-165, looked up)
chain: DDFANLTPCSENPAYLAKSKNFLNTTNDPNSGKIRAERYASALCGPEGYPHLIVDGRFTHAGDFLIPSILFLYIAGWIGWVGRSYLIEIRESKNPEMQEVVINVPLAIKKMLGGFLWPLAAVGEYTSGKLVMKDSEIPTSPR
notes: PsaF, PSI subunit, Synechocystis sp; PCC 6803; Stood in the assay as a subunit of PSI; also called PsaF/J; PsaJ/F; source: endogenous, purified as part of the PSI-IsiA supercomplex from Synechocystis sp; PCC 6803 (DDM-solubilised membranes, DEAE column, sucrose gradients)
Regarding B3, the binding result in data set [2] is “binds”.
